Test results taken from US20220160843A1 (priority 2019, published 2022).

B1: GN54: Modified GN4, N-terminal peptide KRKKRKKRK with linker, SEQ ID NO: 8 (protein)
chain: KRKKRKKRKAGAGAGAGAGAGAGAGASMRTSQRGIDLIKSFEGLRLSAYQDSVGVWTIGYGTTRGVTRYMTITVEQAERMLSNDIQRFEPELDRLAKVPLNQNQWDALMSFVYNLGAANLASSTLLKLLNKGDYQGAADQFPRWVNAGGKRLDGLVKRRAAERALFLEPLS
B2: GN94: Modified GN37, N-terminal peptide KFFKFFKFFK with linker, SEQ ID NO: 14 (protein)
chain: KFFKFFKFFKAGAGAGAGAGAGAGAGASMTYTLSKRSLDNLKGVHPDLVAVVHRAIQLTPVDFAVIEGLRSVSRQKELVAAGASKTMNSRHLTGHAVDLAAYVNGIRWDWPLYDAIAVAVKAAAKELGVAIVWGGDWTTFKDGPHFELDRSKYR
B3: GN146: Modified GN4, amino acid substitutions (K99D, R115H), SEQ ID NO: 4 (protein)
chain: MRTSQRGIDLIKSFEGLRLSAYQDSVGVWTIGYGTTRGVTRYMTITVEQAERMLSNDIQRFEPELDRLAKVPLNQNQWDALMSFVYNLGAANLASSTLLDLLNKGDYQGAADQFPHWVNAGGKRLDGLVKRRAAERALFLEPLS
B4: GN156: Modified GN4, addition of N-terminal peptide GPRRPRRPGRRAPV, SEQ ID NO: 6 (protein)
chain: GPRRPRRPGRRAPVMRTSQRGIDLIKSFEGLRLSAYQDSVGVWTIGYGTTRGVTRYMTITVEQAERMLSNDIQRFEPELDRLAKVPLNQNQWDALMSFVYNLGAANLASSTLLKLLNKGDYQGAADQFPRWVNAGGKRLDGLVKRRAAERALFLEPLS

How the values were obtained:
Type in all cases: cell-based, Pseudomonas aeruginosa
[1] = test system: P. aeruginosa; assay: Minimal inhibitory concentration (MIC), modified CLSI broth microdilution in CAA or CAA/HuS; conditions: for MIC (μg/mL) in CAA: CAA media; for MIC (μg/mL in CAA/HuS) / MIC value in CAA/HuS: CAA supplemented with 25% human serum
[2] = test system: P. aeruginosa strain ATCC 17647; assay: Minimal Biofilm Eradicating Concentration (MBEC), Calgary Biofilm Device; conditions: 24 h biofilm, 24 h treatment; minimum concentration removing >95% of biofilm biomass (crystal violet)
Text: All samples were examined in triplicate.

[3] = test system: P. aeruginosa; assay: Time-kill assay of GN lysin activity; conditions: lysin 10 μg/mL, T = 0 7.8; for Log10 CFU/mL T = 3 hr: buffer control 7.2, limit of detection 3.7; for Log10 CFU/mL T = l hr: buffer control 7.7
Procedure: All treatments were incubated at 37° C. with aeration.

[4] = CAA/HuS, ‡ indicates bactericidal activity
[5] = HEPES buffer, ‡ indicates bactericidal activity

Molecule	MIC (μg/mL) in CAA [1] [µg/mL]	MIC (μg/mL in CAA/HuS) [1] [µg/mL]	MIC value in CAA/HuS [1] [mg/L]	activity in serum ([1]; human serum)	MBEC [2] [µg/mL]	Log10 CFU/mL T = 3 hr [3, 4]	Log10 CFU/mL T = l hr ([3]; CAA/HuS) [Log10 CFU/mL]	Log10 CFU/mL T = 3 hr [3, 5]	Log10 CFU/mL T = l hr [3, 5] [Log10 CFU/mL]
B1	64	2	2	does have activity in serum					
B2	16	2	2		2	<3.7‡ Log10 CFU/mL	6.4	<3.7‡ Log10 CFU/mL	6.0
B3	2	2	2		2	4.0‡ Log10 CFU/mL	5.9	<3.7‡ Log10 CFU/mL	6.7
B4	32	2			0.5	<3.7‡ Log10 CFU/mL	5.7	<3.7‡ Log10 CFU/mL	5.7
